Test: yeast display, Sf9 membrane polyspecificity reagent, FACS + sequencing; frameworks hold sequencing errors
Summary of the method: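 Sorting gates, low and high (top ~1%), were placed on anti-HA fluorescence to track expression and on streptavidin fluorescence to track reagent binding. A clone's polyreactivity label is taken from the gate it came out of. The reagent was 10% biotinylated, detergent-solubilized Sf9 membrane, applied for 1 hour at 4 °C to galactose-induced yeast display cells.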

| Sequence | polyreactivity (PSR sort gate) |
| --- | --- |
| QVQLVESGGGLVQAGGSLRLSCAASGRIFKTNAMGWYRQAPGKERELVAAISWRGVGTYYADSVKGRFTISRDNAKNTVYLQMNSLKPEDTAVYYCAARWTVPRDTAPSKGYDYWGQGTQVTVSS | low polyreactivity |
| QVQLVESGGGLVQAGGSLRLSCAASGRTLPANGMGWYRQAPGKQREFVAAINWRGGITYYADSVKGRFTISRDNSKNTVYLQMNSLNPEDTAVYYCARLRYFLLNGSLRYGTSDRDYWGQGTQVTVSS | high polyreactivity |
| QVQLVESGGGLVQAGGSLRLSCAASGGIFRYYAMGWYRQAPGKERELVAAISKSGGRTYYADSVKGRFTISRDNAKNTVYLQMNSLKPEDTAVYYCAADLYPFSRNTRYQFLYNYWGQGTQVTVSS | low polyreactivity |
| QVQLVESGGGLVQAGGSLRLSCAASGFIFRYYAMGWYRQAPGKERELVAAISWSGGSTYYADSVKGRFTISRDNAKNTVYLQMNSLKPEDTAVYYCAADRYAILFYAEDYWGQGTQVTVSS | low polyreactivity |
| QVQLVESWGGLVQAGGSLRLSCAASGFIFRYYAMGWYRQAPGKERELVAAISWSGGSTYYADSVKGRFTISRDNAKYTVYLQMNSLKPVDTAVYYCAADKRGSVYLSSFWMDYWGQGSQVTVSS | low polyreactivity |
| QVQLVESGRGLVQAGGSLRLSCAASGRTFGYYAMGWYIQAPGKERELVAAISYSGGSTYYADSVKGRFKISRDNAKNTVYLQMNSLKPEDTAVYYCAAYLRRYPWYDYWVQGTQVTVSS | high polyreactivity |
| QDQLVESGGGLVQAGGSLRLSCAASGITFRWYAMGWYRQAPGKERELVAAITSVDSTDYADSVKGRFTISRDNAKNTVYLQMNSLKPEDTAVYYCAARIGTGVLPGRGANSHMDYWGQGTQVTVSS | low polyreactivity |
| QVQRVESGGGLVQAGGSLRLSCAASGRTFAGYAMGWYRQAPGKERELVAAITTGGSTKYADSVKGRLTISRDNAKNTVFLQRTSLKPEDTAVYYCNARKRVYSGNTLMYYWGQGTQVTVSS | high polyreactivity |
| QVQLVESGGGLVQAGGSLRLSCAASGGIFRNYAMGWYRQAPGKERELVARISSAGSTNYADSVKGRFTISRDNAKNTVYLQMNSLKPEDTAVYSCAAYPYVGYVSFSAYDYWGQGTQVTVSS | low polyreactivity |
| QVQLVESGGGLVQAGGSLRLSCAASGRIFDIYAMGWYRQAPGKEGELVAAIRLSSGTTYYADSLKGRITISRDYAKNNVYLQMSSVKQEDSAVYYCNAIYRRGRPGYYYWGQGTQVNVSS | high polyreactivity |
| QVQLVESGGGLVQAGGSLRLSCAASGIFSRYAMGWYRQAPGKERELVAAISSGGSTYYADSVKGRFTISRDNAKNTVYLQMNSLKAEDTAVYYCAVKQRDKFAGGRNDYWGQGTQVTVSS | high polyreactivity |
| QVQLLESGGGLVQAGGSLRLSCAASGRIFGSNAMGWYRPAPGKERELVAAITRGGSTNYADSVKGRFTISRDNAKNTVYLQMNSLKPEDTAVYYCAVRWYRKYNYWGQGTQVTVSS | high polyreactivity |
| QVQLVESGGGLVQAGGSLRLSCAASGSIFLTNAMGWYRQAPGKEREMVAAITLSGGITYYADSVKGRFTISRDNAKNNVYLQMNILKPEDTAVYYCAADVPGGIGNGGGYDYWGQGTQVTVSS | low polyreactivity |
| QVQLQESGGGLVLAGGSLRLSCSASGNISVYGSMGWYRQAPGKEREFVATIDPGTNTNYADSVKDRFTISRDNAKNTVYLQMNSLKPVDTAVYFCAVEAGSDWPYRYWGQGTQVTVSS | low polyreactivity |
| QVQLVESGGGLVQAGGSLRLSCAASGSTLFTYAMGWYRQAPGNERELVAAITSSGSTYYADSVKGRFTISRDNATNTVSLQMKSLKPEDTAVYYCAGPGYRYTNYYYWGQGTQVTVSS | low polyreactivity |
| QVQLVESGGGLVQAGGSLRLSCAASGNIFRRYAMGWYRQAPGKERELVAAISISGGNTYYADSVKGRFTISRDNAKNTVYLQMNSLKPEDTAVYYCNAVGRYSEYGYWGQGTQVTVSS | high polyreactivity |

| Sequence | polyreactivity (PSR sort gate) |
| --- | --- |
| QVQLVESGGGLVQAGGSLRLSCAASGSIWRNAMGWYRQAPGKERELVAGITRRSGSTYYADSVKGRFTISRDNAKYTVYLQMNSLKPEDTAVYYCARVVVGGDDYWGQGTQVTVSS | high polyreactivity |
| QVQLVESGGGLVQAGGSLRLSCAASGFTFQRYAMGWYRQAPGKERELVAAISVRGTRTYYADSVKGRFTISRDNAMNTVYLQMNSLKPEDTAVYYCNADWERDVQDDYWGQGTQVTVSS | high polyreactivity |
| QVQLVESGGGLVQAGGSLRFSCAASGSIFDSYAMGWYRHAPGKERELVAAITWSGGITFYADSVKGRYTISRDNAKNTVYLQMNSLKPEDTAVYYCATARSYVGVGGTFVGLYDYWGQGTQVTVSS | low polyreactivity |
| QDQLVDSGGGLVQAGGSLRLICAASGRIFHCYAMGWYRQAPGKERELVAAIRASGGRTYYADSVKGRFTISRDNAKNTVYVQMNSLKPEDPAVYYCGADSVKYGGDYWGQGTQVTVSS | high polyreactivity |
| QVQLVESGGGLVQAGGSLRLSCAASGIIFELYAMGWYRQAPGKERELVAAISNGDSTNYADSVKGRFTISRDNAKNTVYLQMNSLKPEDTAVYYCAARYSTYVRYDYWGQGTQVTVSS | low polyreactivity |
| QVQLVESGGGLVQARGSLRLSCAASGSTFGGYAMGWYRKAPGKERELVASISAIGGSTYYADSVKGRFTISRDNAKNTFYLQMNSMKPEDTAVYYCAAQRGGGPNDYWGQGTQVTVSS | high polyreactivity |
| QVQLVESGGGLVQAGGSLRLSCAASGRTFYYNAMGWYRQAPGKERELVATITSGGSTNYADSVKGRFTISRDYAKNTVYLQMNSLKPEDTAVDYCATTRYRTYADVNSRYGYWGQGTQVTVSS | low polyreactivity |
| QVQLVESGGGLVQAVGRLRLSCAASGFTFPWYAMGWYRHAPGKERELVAAISTSGDSTYYADSVKGRFTISRDNAKNTVYLQMNSLKPADTAVYYCAARVVRGRYGYWGQGTQVTVSS | high polyreactivity |
| QVQLVESGGGLVQAGGSLRLSCAASGITFTYYVMGWYRQAPGKERELVAAITWRGGRTRYADSVKGRFTISRDNAKNTVYLQMNSLKPEDTAVYYCAADLHQRRYYYWGQGTQVTVSS | high polyreactivity |
| QVQLVESRGGLVQAGGSLRVSCAASGRTFGVNAMGWYRQAPGKERELVAAISTSGGSTYYADSVKGRFTISRDNAKNTVYLQMNSLIPEDTAVYYCNTGRGRYVHGRDYDYWGQGTQVTVSS | low polyreactivity |
| QVQLVESGGGLVQAGGSLRLSCAASGSTFWLNAMGWYRQAPGKEREYVAAITWSSGSTYYADSVKGRFTISRDNAKNTVYLQMNSLKPEDTAVYYCAADGRYVRIRGDYWGQGTQVTVSS | low polyreactivity |
| QVQLVDSGGGLVQAGGSLRLSCAASGFTFYLNTMGWYRQAPGKERELVAAIDLSDGTTYYADSVKGRFTISRDNAKNTVYLQMNSLKPEDTAVYYCAAESYEEWTSSGLDWTDDYWGQGTQVTVSS | high polyreactivity |
| QVQLVESGGGLVQAGGSLRLSCAASGFIFYSYAMGWYRQAPGKERELVAAITYSGGSTYYADSVKGRFTISRDNAKNTVYLQMNSLKPEDTAVYYCADDYYHPGYIYEYWGQGTQVTVSS | low polyreactivity |
| QVQLVESGGGLVQAGGSLRLSCAASGSIFVGNAMGWDRQAPGKERELVATLSWSGGSTYYADSVKGRFTISRDNAKNTVDLQMNSLNPEDTAVYYCAKTPYRRYRYGGYTYRTYDYWGQGTQVTVSS | low polyreactivity |
| QVQLVESGGGLVQAGGSLRLSCAASGSTLGRYAMGWYRQAPGKERELVAAISSSGTTYYADSVKGRITISRDNAKNTVYLQMNSLKPEDTAVYYCNARGFRVARHAAWYQYDYWGQGTQVTVSS | high polyreactivity |
